Holding throughout (assay): two-hybrid library CCmax;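 further: natural log of median RNA to DNA barcode read ratio; higher means stronger binding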
The target in test [1] is T1, 4H775-AA.
T1 chain: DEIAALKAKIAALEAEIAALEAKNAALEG

Test [2] has as its target T2, 4H816-AA.
T2 chain: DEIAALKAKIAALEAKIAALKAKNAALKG
To be noted: mean of both orientations.

Test [3] addresses T3, 4H87-AA.
T3 chain: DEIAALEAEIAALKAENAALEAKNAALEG
Particulars: mean of both orientations.

Test [4] concerns the target T4, 4H3417-AA.
T4 chain: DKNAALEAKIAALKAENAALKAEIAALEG

Test [5] deals with T5, 4H3446-AA.
T5 chain: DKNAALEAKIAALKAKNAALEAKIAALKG
Particulars: mean of both orientations.

Test [6] has as its target T6, 4H3591-AA.
T6 chain: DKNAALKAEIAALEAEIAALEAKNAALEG
Particulars: mean of both orientations.

Test [7] addresses T7, 4H3628-AA.
T7 chain: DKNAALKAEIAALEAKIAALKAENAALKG
Particulars: mean of both orientations.

Test [8] deals with T8, 4H3666-AA.
T8 chain: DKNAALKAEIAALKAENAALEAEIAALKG
Particulars: mean of both orientations.

The target in test [9] is T9, 4H3709-AA.
T9 chain: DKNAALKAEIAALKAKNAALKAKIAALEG
To be noted: mean of both orientations.

Test [10] addresses T10, 4H391-AA.
T10 chain: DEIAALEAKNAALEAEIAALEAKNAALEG
Particulars: mean of both orientations.

Test [11] addresses T11, 4H3920-AA.
T11 chain: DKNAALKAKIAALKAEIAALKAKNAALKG
Particulars: mean of both orientations.

For test [12], the target named is T12, 4H3939-AA.
T12 chain: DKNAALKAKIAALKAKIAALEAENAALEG
To be noted: mean of both orientations.

The target in test [13] is T13, 4H428-AA.
T13 chain: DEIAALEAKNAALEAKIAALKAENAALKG
To be noted: mean of both orientations.

For test [14], the target named is T14, 4H478-AA.
T14 chain: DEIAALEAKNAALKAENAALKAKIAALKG
To be noted: mean of both orientations.

In test [15] the target is T15, 4H497-AA.
T15 chain: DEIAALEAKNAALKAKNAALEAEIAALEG
To be noted: mean of both orientations.

In test [16] the target is T16, 4H656-AA.
T16 chain: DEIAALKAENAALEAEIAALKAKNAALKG
To be noted: mean of both orientations.

The target of test [17] is T17, 4H675-AA.
T17 chain: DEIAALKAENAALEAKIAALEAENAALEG
To be noted: mean of both orientations.

The target of test [18] is T18, 4H971-AA.
T18 chain: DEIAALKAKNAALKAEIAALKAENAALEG
To be noted: mean of both orientations.

Test [19] has as its target T19, 4H510-AA.
T19 chain: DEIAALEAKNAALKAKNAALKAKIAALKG

Test [20] deals with T20, 4H_APH.
T20 chain: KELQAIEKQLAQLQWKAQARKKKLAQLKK
To be noted: mean of both orientations.

In test [21] the target is T21, 4H_BCR.
T21 chain: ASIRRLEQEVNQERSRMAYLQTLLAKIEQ
To be noted: mean of both orientations.

The target in test [22] is 4H_GCN4. Particulars: mean of both orientations.
Test [23] has as its target GCN2_T.
For test [24], the target named is T22, O11-AA.
T22 chain: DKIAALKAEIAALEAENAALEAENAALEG

Test [25] has as its target T23, O13-AA.
T23 chain: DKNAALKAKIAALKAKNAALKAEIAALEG
Particulars: mean of both orientations.

Test [26] addresses T24, O14-AA.
T24 chain: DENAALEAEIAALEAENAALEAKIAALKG
To be noted: mean of both orientations.

The target in test [27] is T25, 4H2617-AA.
T25 chain: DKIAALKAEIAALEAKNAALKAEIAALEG

Test [28] addresses T26, 4H2642-AA.
T26 chain: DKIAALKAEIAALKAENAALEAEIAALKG
Particulars: mean of both orientations.

The target of test [29] is T27, 4H2729-AA.
T27 chain: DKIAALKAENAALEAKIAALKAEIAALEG
Particulars: mean of both orientations.

In test [30] the target is T28, 4H2754-AA.
T28 chain: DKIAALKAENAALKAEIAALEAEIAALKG
To be noted: mean of both orientations.

For test [31], the target named is T29, 4H2837-AA.
T29 chain: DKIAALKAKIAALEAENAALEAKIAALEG
Particulars: mean of both orientations.

Test [32] deals with T30, 4H2883-AA.
T30 chain: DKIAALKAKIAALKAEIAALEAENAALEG
To be noted: mean of both orientations.

For test [33], the target named is T31, 4H2944-AA.
T31 chain: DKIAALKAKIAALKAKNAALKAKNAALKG
To be noted: mean of both orientations.

Test [34] deals with T32, 4H2949-AA.
T32 chain: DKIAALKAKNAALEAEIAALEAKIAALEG
To be noted: mean of both orientations.

For test [35], the target named is T33, 4H3112-AA.
T33 chain: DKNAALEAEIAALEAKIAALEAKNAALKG

Test [36] has as its target T34, 4H317-AA.
T34 chain: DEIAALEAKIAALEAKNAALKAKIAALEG
Particulars: mean of both orientations.

The target of test [37] is T35, 4H3343-AA.
T35 chain: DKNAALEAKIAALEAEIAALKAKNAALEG
To be noted: mean of both orientations.

Test [38] has as its target T36, 4H335-AA.
T36 chain: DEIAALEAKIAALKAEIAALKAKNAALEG
Particulars: mean of both orientations.

The target in test [39] is T37, 4H342-AA.
T37 chain: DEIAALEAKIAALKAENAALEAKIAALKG
Particulars: mean of both orientations.

Test [40] deals with T38, 4H3427-AA.
T38 chain: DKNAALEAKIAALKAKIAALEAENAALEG
Particulars: mean of both orientations.

Test [41] addresses T39, 4H3606-AA.
T39 chain: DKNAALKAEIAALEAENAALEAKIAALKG
Particulars: mean of both orientations.

For test [42], the target named is T40, 4H3627-AA.
T40 chain: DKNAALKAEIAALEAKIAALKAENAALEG
To be noted: mean of both orientations.

Test [43] has as its target T41, 4H3655-AA.
T41 chain: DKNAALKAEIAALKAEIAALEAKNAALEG
To be noted: mean of both orientations.

The target of test [44] is T42, 4H3844-AA.
T42 chain: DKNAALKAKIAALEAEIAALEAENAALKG
Particulars: mean of both orientations.

Test [45] deals with T43, 4H3921-AA.
T43 chain: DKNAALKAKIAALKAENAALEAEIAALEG
Particulars: mean of both orientations.

Test [46] addresses T44, 4H429-AA.
T44 chain: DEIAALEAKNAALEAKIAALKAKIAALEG
To be noted: mean of both orientations.

Test [47] deals with T45, 4H454-AA.
T45 chain: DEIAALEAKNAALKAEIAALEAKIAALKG
To be noted: mean of both orientations.

The target in test [48] is T46, 4H48-AA.
T46 chain: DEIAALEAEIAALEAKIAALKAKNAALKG
Particulars: mean of both orientations.

The target of test [49] is T47, 4H566-AA.
T47 chain: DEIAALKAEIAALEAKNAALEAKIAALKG
To be noted: mean of both orientations.

The target in test [50] is T48, 4H605-AA.
T48 chain: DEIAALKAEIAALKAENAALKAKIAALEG
Particulars: mean of both orientations.

The target in test [51] is T49, 4H678-AA.
T49 chain: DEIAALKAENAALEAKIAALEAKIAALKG
Particulars: mean of both orientations.

In test [52] the target is T50, 4H717-AA.
T50 chain: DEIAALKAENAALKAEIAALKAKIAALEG
To be noted: mean of both orientations.

Test [53] deals with T51, 4H780-AA.
T51 chain: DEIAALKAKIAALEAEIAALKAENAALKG
To be noted: mean of both orientations.

Test [54] concerns the target T52, 4H794-AA.
T52 chain: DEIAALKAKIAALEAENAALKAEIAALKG
Particulars: mean of both orientations.

The target in test [55] is T53, 4H881-AA.
T53 chain: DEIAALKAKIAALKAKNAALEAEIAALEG
Particulars: mean of both orientations.

For test [56], the target named is T54, 4H906-AA.
T54 chain: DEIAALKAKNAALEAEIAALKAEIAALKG
Particulars: mean of both orientations.

Test [57] addresses T55, 4H993-AA.
T55 chain: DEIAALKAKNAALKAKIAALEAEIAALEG
To be noted: mean of both orientations.

Test [58] addresses T56, APC5531-AA.
T56 chain: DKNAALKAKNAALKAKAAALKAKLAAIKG

The target of test [59] is T57, APC6088-AA.
T57 chain: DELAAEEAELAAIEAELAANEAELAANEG
To be noted: mean of both orientations.

Test [60] deals with T58, APC7524-AA.
T58 chain: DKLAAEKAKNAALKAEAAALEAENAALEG
Particulars: mean of both orientations.

In test [61] the target is T59, APC8401-AA.
T59 chain: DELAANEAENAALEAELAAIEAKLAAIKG
Particulars: mean of both orientations.

Test [62] deals with T60, APC8516-AA.
T60 chain: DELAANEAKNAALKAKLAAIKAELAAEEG
Particulars: mean of both orientations.

The target in test [63] is T61, APC9141-AA.
T61 chain: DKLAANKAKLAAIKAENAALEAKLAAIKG
To be noted: mean of both orientations.

The target in test [64] is T62, APC9182-AA.
T62 chain: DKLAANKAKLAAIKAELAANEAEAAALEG
Particulars: mean of both orientations.

The target in test [65] is T63, APC9291-AA.
T63 chain: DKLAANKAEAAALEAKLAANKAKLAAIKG
Particulars: mean of both orientations.

The target in test [66] is T64, APC9806-AA.
T64 chain: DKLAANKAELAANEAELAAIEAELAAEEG
To be noted: mean of both orientations.

Where two headings read alike, the source gives them in different places.

Sequence of 4H_GCN4 (chain, as listed by the source): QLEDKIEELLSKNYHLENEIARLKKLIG

Regarding DEIAALKAKIAALEAEIAALEAKNAALEG [4H775-AA], the interaction score in test [1] is 1.62; in test [2], 1.66; in test [3], -1.7.
Turning to DKNAALEAKIAALKAENAALKAEIAALEG [4H3417-AA], the interaction score was 0.336 in test [4]; -0.679 in test [5]; -1.37 in test [6]; -1.29 in test [7]; 1.09 in test [8]; -0.223 in test [9]. The interaction score was -1.68 in [10]; -1.61 in test [11]; -1.87 in test [12]; -0.935 in [13]; 0.524 in [14]; -1.9 in test [15]. In addition, the interaction score in test [16] is 0.318; in test [17], -0.587; in test [18] it was -1.03.
Turning to DEIAALEAKNAALKAKNAALKAKIAALKG [4H510-AA], the interaction score was -1.44 in test [19]; -1.67 in test [1] (mean of both orientations); -2 in test [2]; -1.29 in test [3]; -2.26 in [20]; -2.2 in test [21]. The interaction score in [22] is -2.32; in test [23], -1.77; in test [24], 1.49; in test [25], -1.66; in [26], 1.32.
For the molecule DKIAALKAEIAALEAKNAALKAEIAALEG [4H2617-AA], the interaction score was 1.29 in [27]; 2.25 in [28]; 2.54 in test [29]; -1.08 in test [30]; 2.22 in test [31]; -1.02 in test [32]. Moreover, the interaction score in [33] was -0.31; in test [34] it was 1.53; in [35] it was -1.06; in [36], 1.65; in [37], -1.31; in [38] it was 0.00978. Further, the interaction score was 2.32 in test [39]; -0.774 in test [40]; 2.03 in [41]; 0.895 in [42]; -1.76 in test [43]; -1.39 in [44]. The interaction score in [45] is 0.979; in [46], 0.393; in test [47], 2.09; in test [48] it was -0.511; in [49] it was 2.42; in test [50], 0.918. Also, the interaction score in [51] was 0.485; in test [52] it was -2.09; in [53], -1.9; in test [54], 1.15; in test [55] it was 1.37; in [56], -0.74. For the same molecule, in test [57], the interaction score is -0.54.
Regarding DKNAALKAKNAALKAKAAALKAKLAAIKG [APC5531-AA], the interaction score in [58] was -1.63; in [59], -1.44; in test [60] it was -1.84; in test [61], -1.77; in test [62] it was -1.6; in test [63], -1.97. Moreover, the interaction score in [64] was -1.96; in test [65], -1.72; in [66], -1.95.

Source of the values: PMC10397247.
